Measurements: patent US20050009847A1, “Compounds and methods for increasing neurogenesis” (published 2005)

Target: alpha-subunit of the stimulatory G protein (Gs), mouse (mouse, UniProt P63094)
Test: cell-based or functional assay

B1: Cholera toxin from Vibrio Cholerae (other)
chain: NDDKLYRADSRPPDEIKQSGGLMPRGQSEYFDRGTQMNINLYDHARGTQTGFVRHDDGYVSTSISLRSAHLVGQTILSGHSTYYIYVIATAPNMFNVNDVLGAYSPHPDEQEVSALGGIPYSQIYGWYRVHFGVLDEQLHRNRGYRDRYYSNLDIAPAADGYGLAGFPPEHRAWREEPWIHHAPPGCGNAPRSSMSNTCDEKTQSLGVKFLDEYQSKVKRQIFSGYQSDIDTHNRIKDEL
In the case of B1, the “cAMP, fold induction over vehicle, adult mouse neural stem cells” value is reported as 3.1 fold induction.
